Test results published in article PMC3433420, “Comprehensive Binary Interaction Mapping of SH2 Domains via Fluorescence Polarization Reveals Novel Functional Diversification of ErbB Receptors” (PLoS ONE, 2012).
Values joined by “and” are separate entries in the source; they are usually repeats but may differ in a detail not shown here. Equal entries are not always repeated. Non-standard residues stand in square brackets, D forms with d. No end group written: not given here. pY = N[C@@H](Cc1ccc(OP(=O)(O)O)cc1)C(=O)O; Rhodamine = not defined here; rhodamine = not defined here

Tests used:
Settings in all cases: both partners purified
SRC SH2 domain = molecular target: T1, SRC SH2 domain (human, UniProt P12931-1 151-248); experiment: fluorescence polarisation; saturation binding in solution: rhodamine peptide fixed at 10 nM, protein titrated 0.002-10 uM, 20 min at room temperature; assay buffer 20 mM HEPES, 100 mM KCl, 0.1% Tween-20, 5 mM DTT, pH 7.8; apparent KD
T1 construct: SRC, human; also called c-Src; source: bacterial expression, purified

GRB7 SH2 domain = molecular target: T2, GRB7 SH2 domain (human, UniProt Q14451 431-527); experiment: as above
T2 construct: GRB7, human; source: bacterial expression, purified
T2 sequence (Q14451 431-527): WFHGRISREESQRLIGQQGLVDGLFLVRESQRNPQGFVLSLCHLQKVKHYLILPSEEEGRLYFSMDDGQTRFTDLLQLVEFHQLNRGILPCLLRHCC

PTK6 SH2 domain = molecular target: T3, PTK6 SH2 domain (human, UniProt Q13882 78-170); experiment: as above
T3 construct: PTK6, human; source: bacterial expression, purified
T3 sequence (Q13882 78-170): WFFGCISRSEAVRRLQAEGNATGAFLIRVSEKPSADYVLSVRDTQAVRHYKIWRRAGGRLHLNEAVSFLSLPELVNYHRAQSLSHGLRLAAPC

BLNK SH2 domain = molecular target: T4, BLNK SH2 domain (human, UniProt Q8WV28 346-453); experiment: peptide or protein array; SH2/PTB proteins spotted on aldehyde slides, rhodamine peptide titrated in buffer B (20 mM HEPES, 100 mM KCl, 0.1% Tween-20, 5 mM DTT, pH 7.8), 1 h at room temperature; replicate assays
T4 construct: BLNK, human; source: bacterial expression, purified
T4 sequence (looked up): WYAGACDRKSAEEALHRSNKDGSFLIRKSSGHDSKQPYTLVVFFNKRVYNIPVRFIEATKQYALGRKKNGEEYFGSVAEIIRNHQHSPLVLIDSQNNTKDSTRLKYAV

GRAP2 SH2 domain = molecular target: T5, GRAP2 SH2 domain (human, UniProt O75791 58-149); experiment: as above
T5 construct: GRAP2, human; source: bacterial expression, purified
T5 sequence (looked up): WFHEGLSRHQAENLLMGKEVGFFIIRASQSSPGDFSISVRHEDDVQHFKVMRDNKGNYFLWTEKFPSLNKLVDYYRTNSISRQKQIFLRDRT

YES1 SH2 domain = molecular target: T6, YES1 SH2 domain (human, UniProt P07947 158-255); experiment: as above
T6 construct: YES1, human; source: bacterial expression, purified
T6 sequence (P07947 158-255): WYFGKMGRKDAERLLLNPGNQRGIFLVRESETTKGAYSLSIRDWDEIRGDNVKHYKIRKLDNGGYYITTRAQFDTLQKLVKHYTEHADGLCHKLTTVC

SHF SH2 domain = molecular target: T7, SHF SH2 domain (human, UniProt Q7M4L6 323-418); experiment: as above
T7 construct: SHF, human; source: bacterial expression, purified
T7 sequence (looked up): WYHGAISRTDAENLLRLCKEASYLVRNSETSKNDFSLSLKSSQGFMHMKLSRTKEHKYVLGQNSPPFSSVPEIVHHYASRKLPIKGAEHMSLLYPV

ITK SH2 domain = molecular target: T8, ITK SH2 domain (human, UniProt Q08881 239-338); experiment: as above
T8 construct: ITK, human; source: bacterial expression, purified
T8 sequence (looked up): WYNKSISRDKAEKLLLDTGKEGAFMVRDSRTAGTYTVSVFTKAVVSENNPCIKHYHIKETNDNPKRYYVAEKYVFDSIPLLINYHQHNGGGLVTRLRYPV

SH2D3A SH2 domain = molecular target: T9, SH2D3A SH2 domain (human, UniProt Q9BRG2 15-114); experiment: as above
T9 construct: SH2D3A, human; source: bacterial expression, purified
T9 sequence (Q9BRG2 15-114): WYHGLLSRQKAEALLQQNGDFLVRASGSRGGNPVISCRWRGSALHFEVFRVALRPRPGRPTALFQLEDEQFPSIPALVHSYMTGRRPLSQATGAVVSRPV

STAP1 SH2 domain = molecular target: T10, STAP1 SH2 domain (human, UniProt Q9ULZ2 177-280); experiment: as above
T10 construct: STAP1, human; source: bacterial expression, purified
T10 sequence (looked up): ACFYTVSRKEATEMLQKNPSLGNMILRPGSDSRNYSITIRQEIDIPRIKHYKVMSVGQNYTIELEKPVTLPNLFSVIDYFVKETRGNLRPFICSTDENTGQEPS

SYK tandem SH2 domains = SYK tandem SH2 domains (human); experiment: as above
BLK SH2 domain = molecular target: T11, BLK SH2 domain (human, UniProt P51451 124-220); experiment: as above
T11 construct: BLK, human; source: bacterial expression, purified
T11 sequence (P51451 124-220): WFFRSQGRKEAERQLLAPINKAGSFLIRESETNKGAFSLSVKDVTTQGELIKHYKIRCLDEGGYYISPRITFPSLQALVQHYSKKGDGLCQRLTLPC

ABL2 SH2 domain = molecular target: T12, ABL2 SH2 domain (human, UniProt P42684 173-263); experiment: as above
T12 construct: ABL2, human; source: bacterial expression, purified
T12 sequence (looked up): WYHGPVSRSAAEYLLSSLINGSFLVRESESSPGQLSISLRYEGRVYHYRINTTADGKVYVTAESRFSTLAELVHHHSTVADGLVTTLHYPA

SUPT6H SH2 domain = molecular target: T13, SUPT6H SH2 domain (human, UniProt Q7KZ85 1325-1431); experiment: as above
T13 construct: SUPT6H, human; source: bacterial expression, purified
T13 sequence (Q7KZ85 1325-1431): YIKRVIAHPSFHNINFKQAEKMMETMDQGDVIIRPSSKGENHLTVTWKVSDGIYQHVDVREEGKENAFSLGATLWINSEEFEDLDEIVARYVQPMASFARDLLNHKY

SHC1 domain construct = molecular target: T14, SHC1 domain construct (human); experiment: as above
T14 chain: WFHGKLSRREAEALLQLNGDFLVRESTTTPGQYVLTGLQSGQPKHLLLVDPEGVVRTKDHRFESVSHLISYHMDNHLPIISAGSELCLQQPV

LCK SH2 domain = molecular target: T15, LCK SH2 domain (human, UniProt P06239 127-224); experiment: as above
T15 construct: LCK, human; source: bacterial expression, purified
T15 sequence (P06239 127-224): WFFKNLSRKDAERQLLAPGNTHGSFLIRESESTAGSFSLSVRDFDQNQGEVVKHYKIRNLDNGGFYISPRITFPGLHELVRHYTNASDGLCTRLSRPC

VAV2 SH2 domain = molecular target: T16, VAV2 SH2 domain (human, UniProt P52735 673-767); experiment: SPR; Biacore 3000; 6X His SH2 proteins held on a Ni-NTA chip, dye-free peptides in solution, equilibrium
T16 construct: VAV2, human; source: bacterial expression, purified
T16 sequence (looked up): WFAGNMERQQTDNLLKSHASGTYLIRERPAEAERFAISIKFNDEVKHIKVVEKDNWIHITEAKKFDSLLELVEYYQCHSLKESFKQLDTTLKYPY

[1] = molecular target: T17, SYK C-terminal SH2 domain (human); experiment: as above
T17 construct: SYK, human; source: bacterial expression, purified

[2] = molecular target: T18, PIK3R1 N-terminal SH2 domain (human); experiment: as above
T18 construct: PIK3R1, human; source: bacterial expression, purified

[3] = molecular target: T19, PIK3R3 C-terminal SH2 domain (human); experiment: as above
T19 construct: PIK3R3, human; source: bacterial expression, purified

[4] = molecular target: T20, PLCG1 C-terminal SH2 domain (human); experiment: as above
T20 construct: PLCG1, human; source: bacterial expression, purified
T20 sequence (P19174 whole entry, looked up): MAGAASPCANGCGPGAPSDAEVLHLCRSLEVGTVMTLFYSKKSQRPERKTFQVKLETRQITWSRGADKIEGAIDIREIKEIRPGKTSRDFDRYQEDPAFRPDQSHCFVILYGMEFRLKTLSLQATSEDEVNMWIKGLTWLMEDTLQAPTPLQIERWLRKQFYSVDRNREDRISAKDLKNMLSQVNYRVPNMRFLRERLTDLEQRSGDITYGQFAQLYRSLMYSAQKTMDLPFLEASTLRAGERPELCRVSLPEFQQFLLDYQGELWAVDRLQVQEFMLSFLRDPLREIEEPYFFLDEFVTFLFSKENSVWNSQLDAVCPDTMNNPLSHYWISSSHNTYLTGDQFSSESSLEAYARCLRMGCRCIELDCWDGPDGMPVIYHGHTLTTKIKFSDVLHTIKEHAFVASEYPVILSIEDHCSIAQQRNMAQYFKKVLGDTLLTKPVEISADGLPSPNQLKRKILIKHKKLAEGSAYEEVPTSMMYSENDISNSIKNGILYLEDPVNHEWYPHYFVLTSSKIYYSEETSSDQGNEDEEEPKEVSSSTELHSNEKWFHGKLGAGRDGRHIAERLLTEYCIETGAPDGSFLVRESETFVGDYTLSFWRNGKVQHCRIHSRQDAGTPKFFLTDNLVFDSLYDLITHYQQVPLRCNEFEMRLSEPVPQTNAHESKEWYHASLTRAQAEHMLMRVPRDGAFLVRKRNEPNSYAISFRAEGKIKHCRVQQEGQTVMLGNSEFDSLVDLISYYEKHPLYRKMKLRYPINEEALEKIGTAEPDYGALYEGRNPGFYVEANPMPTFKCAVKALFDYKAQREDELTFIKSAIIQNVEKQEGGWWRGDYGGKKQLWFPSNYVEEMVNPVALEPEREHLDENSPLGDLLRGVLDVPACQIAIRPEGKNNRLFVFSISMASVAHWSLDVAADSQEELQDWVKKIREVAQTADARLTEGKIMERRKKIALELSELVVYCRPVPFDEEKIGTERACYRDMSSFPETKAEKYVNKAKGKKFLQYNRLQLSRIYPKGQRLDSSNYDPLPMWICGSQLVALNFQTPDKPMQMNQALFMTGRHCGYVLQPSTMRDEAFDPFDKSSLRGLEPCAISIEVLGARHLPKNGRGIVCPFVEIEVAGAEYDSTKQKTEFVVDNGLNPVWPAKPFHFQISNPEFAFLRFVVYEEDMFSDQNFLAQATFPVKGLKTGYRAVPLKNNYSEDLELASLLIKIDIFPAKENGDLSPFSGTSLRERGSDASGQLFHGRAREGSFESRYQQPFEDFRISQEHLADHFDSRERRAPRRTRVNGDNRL

TNS3 SH2 domain = molecular target: T21, TNS3 SH2 domain (human, UniProt Q68CZ2 1172-1282); experiment: as above
T21 construct: TNS3, human; source: bacterial expression, purified
T21 sequence (looked up): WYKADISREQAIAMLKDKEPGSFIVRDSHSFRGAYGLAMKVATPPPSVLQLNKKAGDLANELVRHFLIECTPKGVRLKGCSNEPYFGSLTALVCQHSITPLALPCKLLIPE

B1: ErbB3pY1222 phosphopeptide, rhodamine-labelled (peptide)
peptide: rhodamine-EELG[pY]EYMDVGSD
modifications: reading uncertain
notes: human ErbB3 around Tyr1222; also called labeled peptide 5; source: synthetic peptide
How did the Kd (SRC SH2 domain) turn out when B1 was run?
Its Kd is 2330 nM.

B2: ErbB3pY1197 phosphopeptide, rhodamine-labelled (peptide)
peptide: Rhodamine-EDEE[pY]EYMNRRRD
modifications: reading uncertain
notes: human ErbB3 around Tyr1197; also called labeled peptide 4; source: synthetic peptide
Which Kd (GRB7 SH2 domain) does the source give for B2 here?
The Kd was 130 nM.

What about the Kd (PTK6 SH2 domain) of the same binder?
The Kd was 5.79 µM.

B3: ErbB2 pY1112 phosphopeptide, rhodamine-labelled, for protein microarrays (peptide)
chain: Rhodamine-PLQR[pY]SEDPTVPD
modifications: reading uncertain
What does the source list for B3?
Kd (BLNK SH2 domain): 4.9 µM; Kd (GRAP2 SH2 domain): 7.15 µM; Kd (YES1 SH2 domain): 720 nM and 1600 nM; Kd (SHF SH2 domain): 2970 nM; Kd (ITK SH2 domain): 52.9 µM; Kd (SH2D3A SH2 domain): 26.6 µM; Kd (STAP1 SH2 domain): 50 nM; Kd (SYK tandem SH2 domains): 893 nM and 803 nM; Kd (BLK SH2 domain): 3220 nM and 1170 nM and 2070 nM; Kd (ABL2 SH2 domain): 1840 nM; Kd (SUPT6H SH2 domain): 1040 nM; Kd (SHC1 domain construct): 1260 nM and 3060 nM; Kd (LCK SH2 domain): 10.3 µM and 8.93 µM

B4: MET pY1313 phosphopeptide, dye-free (peptide)
chain: PDPL[pY]EVMLKCW
B4 was tested. Which Kd (VAV2 SH2 domain) did it give?
Its Kd is 2510 nM.

And the Kd [1]?
Its Kd is 1660 nM.

And the Kd [2]?
The Kd was 53 nM.

What about the Kd [3] of the same binder?
Its Kd is 56 nM.

What about the Kd [4] of the same binder?
The Kd was 486 nM.

And the Kd (TNS3 SH2 domain)?
The Kd was 132 nM.
